experiment: soluble on expression in E. coli; label from the status in PepcDB or PDB records

Soluble on expression in E. coli, not soluble:
KVKVPYLRLSLPELHIDMDFLKKTVDFSSISALQQTVLYIGRLLVQSGINTLGVDAVAAFNAVSIIDSYVLAPGDSLAASITTFTAQNKGGKQYHRIPKG
MKFTEGKVKVVANDVKNLTQALEGYIQKAFFEGKDICASGGLVLKTTNKLAQKLSELKEILPQVKVISDEVKAKAEEIIKKAEETLQKGLEIKKRVKEFEAATNVYKKNPSEENKKRVETALNNLKYPEGAKLTLEDYVKNCNPYKKYLQKRVEQKA
MGSDKIHHHHHHMQFEMHDHVKGKAMSYPVTSQPQCANTCYQTQLSDWHTGLTDCCNDMPVCLCGTFAPLCLACRISDDFGECCCAPYLPGGLHSLRTGMRERYHIQGSVGHDWAALTFCLPCALCQMARELKIRE
MSYSPSLKEIIAILQKYTSKNYQSNCKTRPDGKLELSLNGVFEEIVKTPGKTRYVTHKQLDQKLKDFKQDLMVELHDTFATKTDLKESEARINQKLEALIQIVMVQGEQIKVHGEQINKLTQAVEKQGEKIEAQGQQIQKVNETLNFVVESLGSIHKRLDSMEGRLDSMENRLDKLESKLEHHHHHH
GPGSMHGIRRWRVRLVNRACQSLSGSLVFSACRHCATVPTEDDVRKAYKILGVHTSATLTDVKKRYGDLAKEHHPDVSNSSAVSSTNRMTDINNAYNTVKQFHQAGRRLFEATRAPNASGASDSSSSSYYSKQDSAYQPWYEDMDPLMYELMWEEMRRQNEEDSFARNMHAEAFYRPNDRWRPPRGNASARPRQSSGSSDGRQSHAGKKSPSSTTWPEEQVKAMVNMYQDGKSFEFIANALGKESAAAVLEEFNRWSSDNQPQRRKGAKPHHARRHRYHGGHGPFYHTESPDEVPFELYEMMEEEPYYDGSSEESGDPFGYYSGDGEAYDVPYTHATPFYGVHQMNGGPAPYGHFEGGVGREYNSSRKMSHRPMRNHRGGPPNKNRRYGGTSSNHKGSGGGFQSGNGKSHGSGGGKT

Soluble on expression in E. coli, soluble:
SPSCSPQQASKAEENGSNSFMHSMVPQLEWQMETTQSLVDSYVAIVNKTVWDLMVGLTPKTIMHLMINNNKEFIFSELLANLYLHGDKNMLMEESAEQAQRS
MHRLKYLTGYPPQLTAQVAHLVTENRLGEVLVQRYPTVHDVRTDRALYDFTVAVKNEFMRTAQPLSRVLYDGKIHAIKNALGTHTFVSRVQGGKLKAKHEIRIASIFREAPLEFLKMIVVHELAHLKEKEHNKAFYQLCEYMEPRYHQLEFDTRLFLTQVEIAGSPYLPLEHHHHHH
MGSSHHHHHHSQDPTVPAQLQFSAKTLDGHDFHGESLLGKPAVLWFWAPWCPTCQGEAPVVGQVAASHPEVTFVGVAGLDQVPAMQEFVNKYPVKTFTQLADTDGSVWANFGVTQQPAYAFVDPHGNVDVVRGRMSQDELTRRVTALTSR
MSLTRFQDRQEGERVVDFYMIRDREVKRASNGTDYLNLTLERKLEYIPARLWDATEQHKQALIRRAVVKVDGVVTVYRQQKQLNIQRIRLATDEDPVTVAELISKPGLSREELWHELRMIIEEIQDETLLKLVKTMLGKKEIRERFTTIPASKATHHPYYAGLLEHVVEVCQSILQLSLIYGTINRDVVIAAAILHDIGKVAALHDPFAPEYTDEGEMIGHVVLGVELINQTAQELGISMDEPILLAVKHCILSQREQDEGATSFVYGPKTKEAILLAALDQLNGRLNSFELMASHAEERWTYSPLFKRKMFTPDNDEGHHHHHH
MSRRLRRTKIVTTLGPATDRDNNLEKVIAAGANVVRMNFSHGSPEDHKMRADKVREIAAKLGRHVAILGDLQGPKIRVSTFKEGKVFLNIGDKFLLDANLGKGEGDKEKVGIDYKGLPADVVPGDILLLDDGRVQLKVLEVQGMKVFTEVTVGGPLSNNKGINKLGGGLSAEALTEKDKADIKTAALIGVDYLAVSFPRCGEDLNYARRLARDAGCDAKIVAKVERAEAVCSQDAMDDIILASDVVMVARGDLGVEIGDPELVGIQKALIRRARQLNRAVITATQMMESMITNPMPTRAEVMDVANAVLDGTDAVMLSAETAAGQYPSETVAAMARVCLGAEKIPSINVSKHRLDVQFDNVEEAIAMSAMYAANHLKGVTAIITMTESGRTALMTSRISSGLPIFAMSRHERTLNLTALYRGVTPVHFDSANDGVAAASEAVNLLRDKGYLMSGDLVIVTQGDVMSTVGSTNTTRILTVE
